Reference: PMC9482650, “Quantitative fragmentomics allow affinity mapping of interactomes” (Nature Communications, 2022)

Assays:
Assay in all cases: holdup assay
Parameters in all cases: key: below the threshold = too weak to quantify, mostly under pKd 3.1 to 4
Inadl_8, Q8NI35 = biological target: Inadl_8, Q8NI35
DFNB31_3, Q9P202 = biological target: T1, DFNB31_3, Q9P202
T1 sequence (Q9P202 811-907, limits assumed, looked up): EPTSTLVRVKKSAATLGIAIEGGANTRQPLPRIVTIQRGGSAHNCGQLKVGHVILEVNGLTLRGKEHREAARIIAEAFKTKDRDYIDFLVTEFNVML

PDZRN4_1, Q6ZMN7 = biological target: PDZRN4_1, Q6ZMN7
TJP1_2, Q07157 = biological target: TJP1_2, Q07157
MAGI1_2, Q96QZ7 = biological target: MAGI1_2, Q96QZ7
SHANK1, Q9Y566 = biological target: T2, SHANK1, Q9Y566
T2 sequence (Q9Y566 658-767, limits assumed, looked up): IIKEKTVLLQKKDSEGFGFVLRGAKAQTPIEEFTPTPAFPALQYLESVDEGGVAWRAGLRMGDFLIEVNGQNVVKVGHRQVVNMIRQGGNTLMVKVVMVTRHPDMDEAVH

RHPN1, Q8TCX5 = biological target: T3, RHPN1, Q8TCX5
T3 sequence (Q8TCX5 508-602, limits assumed, looked up): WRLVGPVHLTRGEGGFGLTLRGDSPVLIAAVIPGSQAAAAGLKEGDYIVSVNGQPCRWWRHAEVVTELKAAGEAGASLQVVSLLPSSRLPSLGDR

NHERF3_1, Q5T2W1 = biological target: T4, NHERF3_1, Q5T2W1
T4 sequence (Q5T2W1 4-100, limits assumed, looked up): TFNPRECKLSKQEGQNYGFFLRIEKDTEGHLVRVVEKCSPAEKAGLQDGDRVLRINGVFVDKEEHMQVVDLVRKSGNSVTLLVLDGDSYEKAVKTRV

MAST1, Q9Y2H9 = biological target: MAST1, Q9Y2H9
SNTG1, Q9NSN8 = biological target: T5, SNTG1, Q9NSN8
T5 sequence (Q9NSN8 52-150, limits assumed, looked up): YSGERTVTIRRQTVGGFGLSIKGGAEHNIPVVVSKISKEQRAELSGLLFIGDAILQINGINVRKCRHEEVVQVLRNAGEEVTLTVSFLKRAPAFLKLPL

NHERF2_2, Q15599 = biological target: NHERF2_2, Q15599
LNX1_1, Q8TBB1 = biological target: LNX1_1, Q8TBB1
MAGI2_3, Q86UL8 = biological target: MAGI2_3, Q86UL8
LIN7C, Q9NUP9 = biological target: T6, LIN7C, Q9NUP9
T6 sequence (Q9NUP9 88-185, limits assumed, looked up): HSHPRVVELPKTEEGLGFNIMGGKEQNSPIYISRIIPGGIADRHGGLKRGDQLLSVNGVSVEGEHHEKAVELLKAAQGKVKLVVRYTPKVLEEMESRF

DLG4_1, P78352 = biological target: DLG4_1, P78352
PTPN3, P26045 = biological target: PTPN3, P26045
NHERF4_2, Q86UT5 = biological target: NHERF4_2, Q86UT5
MPP2, Q14168 = biological target: T7, MPP2, Q14168
T7 sequence (Q14168 180-250, limits assumed, looked up): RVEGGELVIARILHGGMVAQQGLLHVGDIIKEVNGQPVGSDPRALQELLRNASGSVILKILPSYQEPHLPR

SYNJ2BP, P57105 = biological target: T8, SYNJ2BP, P57105
T8 sequence (P57105 8-110, limits assumed, looked up): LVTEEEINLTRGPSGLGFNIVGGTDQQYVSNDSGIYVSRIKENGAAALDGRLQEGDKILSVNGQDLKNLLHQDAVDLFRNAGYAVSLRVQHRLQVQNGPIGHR

GORASP1, Q9BQQ3 = biological target: GORASP1, Q9BQQ3
LNX2_2, Q8N448 = biological target: T9, LNX2_2, Q8N448
T9 sequence (Q8N448 334-432, limits assumed, looked up): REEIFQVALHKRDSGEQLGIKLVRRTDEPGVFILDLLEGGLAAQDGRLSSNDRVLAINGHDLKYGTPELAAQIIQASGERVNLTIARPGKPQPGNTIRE

GORASP2, Q9H8Y8 = biological target: GORASP2, Q9H8Y8
FRMPD3, Q5JV73 = biological target: FRMPD3, Q5JV73
NHERF3_4, Q5T2W1 = biological target: T10, NHERF3_4, Q5T2W1
T10 sequence (Q5T2W1 373-468, limits assumed, looked up): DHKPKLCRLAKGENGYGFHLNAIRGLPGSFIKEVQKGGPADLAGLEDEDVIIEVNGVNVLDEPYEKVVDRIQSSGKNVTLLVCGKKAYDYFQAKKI

SCRIB_1, Q14160 = biological target: SCRIB_1, Q14160
DLG3_2, Q92796 = biological target: T11, DLG3_2, Q92796
T11 sequence (Q92796 221-321, limits assumed, looked up): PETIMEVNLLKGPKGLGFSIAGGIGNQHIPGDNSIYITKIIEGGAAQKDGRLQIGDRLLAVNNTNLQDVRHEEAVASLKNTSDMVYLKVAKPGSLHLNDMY

DLG4_2, P78352 = biological target: DLG4_2, P78352
[1] = plain residues with an end cap or a label only (N-terminal biotin on a linker: ttds)
[2] = plain residues with an end cap or a label only (N-terminal biotin on a linker: ahx)

Sequence of DLG4_2, P78352 (P78352 155-259): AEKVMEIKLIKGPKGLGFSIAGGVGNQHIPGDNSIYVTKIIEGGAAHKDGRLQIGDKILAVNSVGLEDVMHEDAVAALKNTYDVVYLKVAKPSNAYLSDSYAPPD
Sequence of MAGI1_2, Q96QZ7 (Q96QZ7 456-580): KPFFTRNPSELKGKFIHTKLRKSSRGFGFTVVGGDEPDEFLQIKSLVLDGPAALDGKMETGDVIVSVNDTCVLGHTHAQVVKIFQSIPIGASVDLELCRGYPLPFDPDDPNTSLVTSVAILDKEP
Sequence of FRMPD3, Q5JV73 (Q5JV73 12-100): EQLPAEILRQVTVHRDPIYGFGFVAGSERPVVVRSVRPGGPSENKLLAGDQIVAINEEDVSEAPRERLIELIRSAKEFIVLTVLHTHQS
Sequence of NHERF2_2, Q15599 (Q15599 142-238): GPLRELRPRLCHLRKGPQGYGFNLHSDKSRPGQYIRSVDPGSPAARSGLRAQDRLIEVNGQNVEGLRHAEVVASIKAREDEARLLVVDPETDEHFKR
Sequence of SCRIB_1, Q14160 (Q14160 718-814): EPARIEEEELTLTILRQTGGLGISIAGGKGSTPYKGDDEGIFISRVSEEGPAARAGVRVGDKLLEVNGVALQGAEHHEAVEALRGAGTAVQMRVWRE
Sequence of PTPN3, P26045 (P26045 505-587): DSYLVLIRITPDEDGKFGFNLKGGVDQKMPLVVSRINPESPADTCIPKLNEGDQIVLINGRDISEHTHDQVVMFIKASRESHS
Sequence of PDZRN4_1, Q6ZMN7 (Q6ZMN7 213-318): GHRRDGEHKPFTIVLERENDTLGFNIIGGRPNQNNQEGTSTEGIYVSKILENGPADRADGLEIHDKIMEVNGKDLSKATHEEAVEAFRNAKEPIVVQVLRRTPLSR
Sequence of DLG4_1, P78352 (P78352 62-152): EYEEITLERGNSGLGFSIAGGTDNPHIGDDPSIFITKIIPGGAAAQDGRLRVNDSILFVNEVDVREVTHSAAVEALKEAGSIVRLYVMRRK
Sequence of MAGI2_3, Q86UL8 (Q86UL8 600-682): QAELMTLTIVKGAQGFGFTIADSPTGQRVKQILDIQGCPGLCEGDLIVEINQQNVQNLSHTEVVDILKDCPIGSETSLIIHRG
Sequence of MAST1, Q9Y2H9 (Q9Y2H9 962-1065): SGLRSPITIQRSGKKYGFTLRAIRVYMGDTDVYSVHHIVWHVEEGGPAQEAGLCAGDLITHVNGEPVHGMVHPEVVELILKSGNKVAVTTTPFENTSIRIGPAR
Sequence of NHERF4_2, Q86UT5 (Q86UT5 220-308): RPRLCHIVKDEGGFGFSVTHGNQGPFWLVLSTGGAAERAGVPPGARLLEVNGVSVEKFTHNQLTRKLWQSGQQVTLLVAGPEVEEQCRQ
Sequence of GORASP1, Q9BQQ3 (Q9BQQ3 1-208): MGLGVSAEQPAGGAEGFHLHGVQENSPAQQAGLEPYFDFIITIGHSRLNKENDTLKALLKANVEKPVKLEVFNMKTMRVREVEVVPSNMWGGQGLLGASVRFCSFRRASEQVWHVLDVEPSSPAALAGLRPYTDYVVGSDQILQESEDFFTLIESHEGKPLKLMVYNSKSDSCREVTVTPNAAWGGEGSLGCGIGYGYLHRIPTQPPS
Sequence of Inadl_8, Q8NI35 (Q8NI35 1425-1530): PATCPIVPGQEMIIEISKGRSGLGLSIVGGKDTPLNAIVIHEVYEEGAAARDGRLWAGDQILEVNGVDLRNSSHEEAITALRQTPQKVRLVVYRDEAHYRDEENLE
Sequence of LNX1_1, Q8TBB1 (Q8TBB1 261-371): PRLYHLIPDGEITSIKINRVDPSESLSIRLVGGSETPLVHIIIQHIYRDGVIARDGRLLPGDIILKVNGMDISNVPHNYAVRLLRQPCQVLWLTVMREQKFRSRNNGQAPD
Sequence of TJP1_2, Q07157 (Q07157 181-274): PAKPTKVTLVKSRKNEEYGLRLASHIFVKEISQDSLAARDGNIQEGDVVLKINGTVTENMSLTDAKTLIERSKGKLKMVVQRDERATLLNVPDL

## RHTTSTETAV [HPV30-E6, P36809]
Inadl_8, Q8NI35; [1]
  pKd: 3.94
DFNB31_3, Q9P202; [1]
  pKd: below the threshold
PDZRN4_1, Q6ZMN7; [1]
  pKd: 4.53
TJP1_2, Q07157; [1]
  pKd: below the threshold
MAGI1_2, Q96QZ7; [1]
  pKd: 4.39
SHANK1, Q9Y566; [1]
  pKd: 3.73
RHPN1, Q8TCX5; [1]
  pKd: 4.08
NHERF3_1, Q5T2W1; [1]
  pKd: 4.87
MAST1, Q9Y2H9; [1]
  pKd: 4.66
SNTG1, Q9NSN8; [1]
  pKd: 4.94
NHERF2_2, Q15599; [1]
  pKd: below the threshold
LNX1_1, Q8TBB1; [1]
  pKd: below the threshold
MAGI2_3, Q86UL8; [1]
  pKd: 4.57
LIN7C, Q9NUP9; [1]
  pKd: 4.19
DLG4_1, P78352; [1]
  pKd: 4.92
PTPN3, P26045; [1]
  pKd: 5.13
NHERF4_2, Q86UT5; [1]
  pKd: below the threshold
MPP2, Q14168; [1]
  pKd: below the threshold
SYNJ2BP, P57105; [1]
  pKd: 5.36
GORASP1, Q9BQQ3; [1]
  pKd: below the threshold
LNX2_2, Q8N448; [1]
  pKd: 3.77
GORASP2, Q9H8Y8; [1]
  pKd: below the threshold
FRMPD3, Q5JV73; [1]
  pKd: 3.76
NHERF3_4, Q5T2W1; [1]
  pKd: below the threshold
SCRIB_1, Q14160; [1]
  pKd: 4.76
DLG3_2, Q92796; [1]
  pKd: 5.41
DLG4_2, P78352; [1]
  pKd: 5.45

## SDSSGQEYSL [KCTD3, Q9Y597]
Inadl_8, Q8NI35; [2]
  pKd: below the threshold
DFNB31_3, Q9P202; [2]
  pKd: below the threshold
PDZRN4_1, Q6ZMN7; [2]
  pKd: below the threshold
TJP1_2, Q07157; [2]
  pKd: below the threshold
MAGI1_2, Q96QZ7; [2]
  pKd: below the threshold
SHANK1, Q9Y566; [2]
  pKd: below the threshold
RHPN1, Q8TCX5; [2]
  pKd: below the threshold
NHERF3_1, Q5T2W1; [2]
  pKd: 3.8
MAST1, Q9Y2H9; [2]
  pKd: below the threshold
SNTG1, Q9NSN8; [2]
  pKd: below the threshold
NHERF2_2, Q15599; [2]
  pKd: below the threshold
LNX1_1, Q8TBB1; [2]
  pKd: below the threshold
MAGI2_3, Q86UL8; [2]
  pKd: below the threshold
LIN7C, Q9NUP9; [2]
  pKd: below the threshold
DLG4_1, P78352; [2]
  pKd: below the threshold
PTPN3, P26045; [2]
  pKd: 4.14
NHERF4_2, Q86UT5; [2]
  pKd: below the threshold
MPP2, Q14168; [2]
  pKd: below the threshold
SYNJ2BP, P57105; [2]
  pKd: below the threshold
GORASP1, Q9BQQ3; [2]
  pKd: below the threshold
LNX2_2, Q8N448; [2]
  pKd: below the threshold
GORASP2, Q9H8Y8; [2]
  pKd: below the threshold
FRMPD3, Q5JV73; [2]
  pKd: 3.7
NHERF3_4, Q5T2W1; [2]
  pKd: below the threshold
SCRIB_1, Q14160; [2]
  pKd: below the threshold
DLG3_2, Q92796; [2]
  pKd: below the threshold
DLG4_2, P78352; [2]
  pKd: below the threshold

## SSLQSLETSV [ATP2B4, P23634]
Inadl_8, Q8NI35; [1]
  pKd: 3.54
DFNB31_3, Q9P202; [1]
  pKd: below the threshold
PDZRN4_1, Q6ZMN7; [1]
  pKd: 4.79
TJP1_2, Q07157; [1]
  pKd: below the threshold
MAGI1_2, Q96QZ7; [1]
  pKd: 3.68
SHANK1, Q9Y566; [1]
  pKd: 3.94
RHPN1, Q8TCX5; [1]
  pKd: 4.58
NHERF3_1, Q5T2W1; [1]
  pKd: 4.41
MAST1, Q9Y2H9; [1]
  pKd: 5.26
SNTG1, Q9NSN8; [1]
  pKd: 5.08
NHERF2_2, Q15599; [1]
  pKd: 3.84
LNX1_1, Q8TBB1; [1]
  pKd: 3.71
MAGI2_3, Q86UL8; [1]
  pKd: 4.2
LIN7C, Q9NUP9; [1]
  pKd: 4.8
DLG4_1, P78352; [1]
  pKd: 4.78
PTPN3, P26045; [1]
  pKd: 5.12
NHERF4_2, Q86UT5; [1]
  pKd: below the threshold
MPP2, Q14168; [1]
  pKd: below the threshold
SYNJ2BP, P57105; [1]
  pKd: 5.66
GORASP1, Q9BQQ3; [1]
  pKd: below the threshold
LNX2_2, Q8N448; [1]
  pKd: 4.01
GORASP2, Q9H8Y8; [1]
  pKd: 3.98
FRMPD3, Q5JV73; [1]
  pKd: below the threshold
NHERF3_4, Q5T2W1; [1]
  pKd: 3.63
SCRIB_1, Q14160; [1]
  pKd: 5.03
DLG3_2, Q92796; [1]
  pKd: 5.2
DLG4_2, P78352; [1]
  pKd: 5.18
